# Experimental data as given in patent US20250171535A1, “COMPOSITIONS AND METHODS FOR DEPLETION OF DISEASED HEMATOPOIETIC STEM CELLS” (Jasper Therapeutics, Inc., priority 2022, published 2025).
# How the values were obtained:
# [1] = Clinical study: safety and tolerability in higher risk MDS or AML patients; assay type: in vivo, human; settings: 0.6 mg/kg intravenously
# Experimental: (§1) Nine patients having either higher risk MDS or AML were treated with a single dose of 0.6 mg/kg JSP191 administered intravenously.
# [2] = system: diseased HSC cells (CD34+CD45RA-CD117+ HSCs); assay: Clinical study: depletion of diseased stem and progenitor cells in higher risk MDS or AML patients; assay type: in vivo, human; settings: nine higher risk MDS or AML patients; single dose 0.6 mg/kg intravenously; 10-14 days post-treatment
# Experimental: FIG. 2 is a bar graph of the percent (%) depletion of CD34+CD45RA-CD117+ cells in nine myelodysplastic syndrome (MDS) and acute myeloid leukemia (AML) patients treated with a single dose of anti-c-kit antibody, measured 10-14 days post-treatment.
# as §1
substance,measurement,setting,value
"JSP191: aglycosylated IgG1 humanized anti-c-kit (CD117) antibody, humanized form of murine SR1; heavy chain SEQ ID NO: 2, light chain SEQ ID NO: 3",JSP191-related infusion reactions,[1],No significant JSP191-related infusion reactions were observed
same,adverse events,[1],no significant adverse events were observed
same,safety and tolerability,[1]; ongoing clinical trial,safe and well-tolerated
same,depletion of diseased HSC cells (CD34+CD45RA-CD117+ HSCs),[2],30-95%
